Test results published in publication PMC11319201 (2024).

Experiments:
[1] = target: STAG2^R370Q–RAD21 complex (human | , UniProt Q8N3U4 1-1231; O60216 1-631, R370Q); assay: ITC
[2] = target: T1, STAG2–RAD21 complex (wild type) (human | , UniProt Q8N3U4 1-1231; O60216 1-631); assay: ITC
T1 chain 1: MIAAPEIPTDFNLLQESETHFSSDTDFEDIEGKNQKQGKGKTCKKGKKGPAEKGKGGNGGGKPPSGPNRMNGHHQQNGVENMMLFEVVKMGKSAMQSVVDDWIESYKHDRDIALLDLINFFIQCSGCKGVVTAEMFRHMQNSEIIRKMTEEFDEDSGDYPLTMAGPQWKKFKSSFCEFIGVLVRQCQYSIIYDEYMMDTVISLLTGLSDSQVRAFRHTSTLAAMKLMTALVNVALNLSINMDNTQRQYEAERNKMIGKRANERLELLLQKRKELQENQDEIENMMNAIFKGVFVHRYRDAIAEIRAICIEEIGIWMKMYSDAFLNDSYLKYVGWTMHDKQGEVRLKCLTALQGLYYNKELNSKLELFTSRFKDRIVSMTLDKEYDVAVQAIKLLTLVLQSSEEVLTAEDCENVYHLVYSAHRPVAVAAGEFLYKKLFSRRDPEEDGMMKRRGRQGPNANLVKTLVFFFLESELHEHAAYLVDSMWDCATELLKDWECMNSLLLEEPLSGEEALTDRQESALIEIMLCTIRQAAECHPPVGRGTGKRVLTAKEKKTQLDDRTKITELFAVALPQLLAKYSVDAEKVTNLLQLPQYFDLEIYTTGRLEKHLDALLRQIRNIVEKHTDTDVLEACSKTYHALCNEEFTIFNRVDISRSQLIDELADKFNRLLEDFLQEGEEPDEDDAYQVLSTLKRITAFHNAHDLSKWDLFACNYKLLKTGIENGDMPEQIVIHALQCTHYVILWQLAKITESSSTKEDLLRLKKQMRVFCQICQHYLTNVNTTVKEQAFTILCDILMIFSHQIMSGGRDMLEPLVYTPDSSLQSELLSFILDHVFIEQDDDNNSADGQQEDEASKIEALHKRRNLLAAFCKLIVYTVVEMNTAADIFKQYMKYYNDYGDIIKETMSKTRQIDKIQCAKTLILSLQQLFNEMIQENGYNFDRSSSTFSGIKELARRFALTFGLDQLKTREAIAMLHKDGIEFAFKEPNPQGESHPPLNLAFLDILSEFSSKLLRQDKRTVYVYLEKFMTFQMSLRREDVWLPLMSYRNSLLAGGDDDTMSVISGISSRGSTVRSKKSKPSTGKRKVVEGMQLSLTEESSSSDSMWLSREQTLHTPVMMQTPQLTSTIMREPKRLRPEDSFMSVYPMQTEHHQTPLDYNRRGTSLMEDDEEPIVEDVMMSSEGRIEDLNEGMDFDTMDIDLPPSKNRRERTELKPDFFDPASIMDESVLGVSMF
T1 chain 2: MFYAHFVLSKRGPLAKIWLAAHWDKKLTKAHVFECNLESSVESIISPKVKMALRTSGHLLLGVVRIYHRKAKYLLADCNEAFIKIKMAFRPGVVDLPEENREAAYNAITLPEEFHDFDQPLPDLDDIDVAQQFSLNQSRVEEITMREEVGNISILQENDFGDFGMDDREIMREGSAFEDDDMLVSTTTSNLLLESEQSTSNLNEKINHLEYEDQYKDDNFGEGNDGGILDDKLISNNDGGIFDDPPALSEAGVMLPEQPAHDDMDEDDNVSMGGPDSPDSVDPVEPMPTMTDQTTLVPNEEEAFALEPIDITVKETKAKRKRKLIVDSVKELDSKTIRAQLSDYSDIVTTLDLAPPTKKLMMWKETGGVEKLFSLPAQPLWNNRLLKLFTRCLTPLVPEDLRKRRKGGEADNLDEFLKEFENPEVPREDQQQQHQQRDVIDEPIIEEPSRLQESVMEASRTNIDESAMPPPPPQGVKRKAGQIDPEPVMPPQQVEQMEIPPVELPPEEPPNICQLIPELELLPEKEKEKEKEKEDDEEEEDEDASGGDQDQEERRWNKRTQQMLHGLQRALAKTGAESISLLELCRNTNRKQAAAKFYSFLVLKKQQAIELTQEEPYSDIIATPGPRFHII

Sequence of STAG2^R370Q–RAD21 complex (Q8N3U4 whole entry R370Q, chain 1 of 2, one chain of several): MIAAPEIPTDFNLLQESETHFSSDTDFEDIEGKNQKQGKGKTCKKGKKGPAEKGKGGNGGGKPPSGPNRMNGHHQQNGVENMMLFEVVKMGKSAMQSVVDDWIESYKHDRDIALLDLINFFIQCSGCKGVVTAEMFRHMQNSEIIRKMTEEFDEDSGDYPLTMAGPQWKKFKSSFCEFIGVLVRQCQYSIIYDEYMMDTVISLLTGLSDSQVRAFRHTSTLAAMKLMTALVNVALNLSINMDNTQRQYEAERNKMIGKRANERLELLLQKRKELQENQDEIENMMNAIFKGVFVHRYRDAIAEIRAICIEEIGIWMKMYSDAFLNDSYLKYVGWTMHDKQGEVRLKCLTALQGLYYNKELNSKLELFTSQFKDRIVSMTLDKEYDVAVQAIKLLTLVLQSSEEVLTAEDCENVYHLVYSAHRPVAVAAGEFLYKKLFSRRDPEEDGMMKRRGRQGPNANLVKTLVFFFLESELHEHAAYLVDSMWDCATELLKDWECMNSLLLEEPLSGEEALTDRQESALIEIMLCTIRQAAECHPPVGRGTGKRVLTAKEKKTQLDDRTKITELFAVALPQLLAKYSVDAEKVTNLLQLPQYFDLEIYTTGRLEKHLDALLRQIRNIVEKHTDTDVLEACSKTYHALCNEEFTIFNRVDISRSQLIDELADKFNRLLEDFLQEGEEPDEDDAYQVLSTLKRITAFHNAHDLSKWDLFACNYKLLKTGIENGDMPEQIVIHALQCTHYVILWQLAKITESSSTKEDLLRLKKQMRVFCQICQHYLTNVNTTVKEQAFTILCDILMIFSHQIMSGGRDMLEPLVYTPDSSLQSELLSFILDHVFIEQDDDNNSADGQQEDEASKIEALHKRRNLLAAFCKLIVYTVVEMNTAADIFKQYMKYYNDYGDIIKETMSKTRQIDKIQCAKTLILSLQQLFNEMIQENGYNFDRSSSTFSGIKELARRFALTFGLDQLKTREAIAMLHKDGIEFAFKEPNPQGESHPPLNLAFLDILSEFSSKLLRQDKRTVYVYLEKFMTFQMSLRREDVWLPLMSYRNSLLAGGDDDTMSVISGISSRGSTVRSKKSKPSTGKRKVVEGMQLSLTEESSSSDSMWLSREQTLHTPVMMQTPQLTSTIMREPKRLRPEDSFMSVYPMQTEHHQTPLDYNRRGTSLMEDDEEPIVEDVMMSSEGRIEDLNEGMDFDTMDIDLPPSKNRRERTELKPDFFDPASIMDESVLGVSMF

## DVSVYDFEEE [CTCF peptide]
[1]
  Kd: 21.7 µM
[2]
  Kd: 1920 nM
